Source: publication PMC12994607, “Screening pertactin-specific antibodies and evaluating competitive epitope recognition by native mass spectrometry” (Chemical Science, 2026)
Substitutions are numbered along the chain they refer to.

T1: mature pertactin (Prn), wild type (Bordetella pertussis, strain  …)
T1 construct: Pertactin (Prn) of Bordetella pertussis, mature N-terminal passenger domain (63 kDa), cut from the precursor; Kept in 0.06% C10E5 detergent for native MS; also called Prn antigen; wild-type Prn
T1 chain: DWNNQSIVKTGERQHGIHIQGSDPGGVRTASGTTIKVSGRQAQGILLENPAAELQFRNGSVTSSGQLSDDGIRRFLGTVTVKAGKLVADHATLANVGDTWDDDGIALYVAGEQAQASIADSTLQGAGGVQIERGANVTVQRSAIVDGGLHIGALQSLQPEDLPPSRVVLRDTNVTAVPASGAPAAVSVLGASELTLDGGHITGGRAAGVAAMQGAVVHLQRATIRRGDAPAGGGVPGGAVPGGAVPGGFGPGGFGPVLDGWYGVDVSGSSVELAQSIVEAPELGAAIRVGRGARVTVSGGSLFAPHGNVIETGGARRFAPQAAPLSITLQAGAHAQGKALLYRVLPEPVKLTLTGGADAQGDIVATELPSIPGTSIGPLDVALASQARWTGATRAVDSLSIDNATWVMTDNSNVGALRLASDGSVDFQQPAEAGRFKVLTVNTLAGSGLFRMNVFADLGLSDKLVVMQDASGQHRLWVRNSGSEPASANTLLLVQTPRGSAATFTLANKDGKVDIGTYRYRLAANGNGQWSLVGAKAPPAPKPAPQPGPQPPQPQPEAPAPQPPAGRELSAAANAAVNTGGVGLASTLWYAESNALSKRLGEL

T2: Mature Pertactin (Prn) (Bordetella pertussis, strain  …)
T2 construct: pertactin (Prn) of Bordetella pertussis, mature passenger domain; the legend on D1:p9 names 1DAB instead; also called wild-type Prn; wild type Prn
T2 chain: T1 chain

T3: ΔC-term Prn variant (Bordetella pertussis, strain  …, point mutant)
T3 construct: Pertactin (Prn) of Bordetella pertussis, mature passenger domain from which 64 residues at the C-terminus (with the R2 repeat region; unstructured in the X-ray structure) were truncated; also called ΔC-terminal
T3 chain: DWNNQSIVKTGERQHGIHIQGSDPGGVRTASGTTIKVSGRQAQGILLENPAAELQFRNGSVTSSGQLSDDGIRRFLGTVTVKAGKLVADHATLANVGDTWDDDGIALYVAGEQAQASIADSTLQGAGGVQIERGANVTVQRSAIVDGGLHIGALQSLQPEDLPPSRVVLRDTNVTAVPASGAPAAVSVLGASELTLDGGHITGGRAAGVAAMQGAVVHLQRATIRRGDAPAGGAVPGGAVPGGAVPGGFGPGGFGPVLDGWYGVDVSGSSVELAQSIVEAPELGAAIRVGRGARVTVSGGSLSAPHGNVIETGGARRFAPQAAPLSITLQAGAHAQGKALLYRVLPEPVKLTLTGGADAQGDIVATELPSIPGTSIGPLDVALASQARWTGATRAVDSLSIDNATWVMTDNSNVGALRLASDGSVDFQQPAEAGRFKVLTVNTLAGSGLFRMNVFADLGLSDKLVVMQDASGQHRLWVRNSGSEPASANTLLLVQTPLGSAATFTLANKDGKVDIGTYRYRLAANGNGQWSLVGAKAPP

B1: 2E9 monoclonal antibody (antibody, V domains shown)
VH: QVQLQQSGPELVKPGASVKMSCKASGYTFTSNYIHWMKQRPGQGLEWIGWIYPGDGSSKYNEKFKGKTTLTADRSSSTAYMLLSSLTSEDSAIYFCANYFYAMDQWGQGTSVTVSR
VL: IVLTQSHKFMSTSVGDRVSITCKASQDVSTAVAWYQQKPGQSPKLLIYWASTRHTGVPDRFTGSGSGTDYTLTISSVQAEDLALYYCQQHYSTPWTFGGGTKLEIK
notes: variable region of 2E9; mouse IgG2a heavy chain constant domains; mouse light chain constant domain; Full-length mouse IgG2a; also called 2E9 mAb; source: ExpiCHO-S, transfected, purified (Protein A); copies: 2 + 2
B2: 1F2 monoclonal antibody (antibody, V domains shown)
VH: EVQLVESGGGLVKPGESLKLSCAASGFTFNSYTMSWVRQTPEKRLEWVATISSGGSYTYYPDSVKGRFTISRDNAKNTLYLQMSSLKSEDTAMYYCIRVGGLFDYWGQGTTLTVSR
VL: B1 VL with V2Q, L3M, T4I, Y70F, S76G, S92T
notes: variable region of 1F2; mouse IgG2a heavy chain constant domains; mouse light chain constant domain; Full-length mouse IgG2a; also called 1F2 antibody; source: ExpiCHO-S, transfected, purified (Protein A); copies: 2 + 2
B3: 1E7 monoclonal antibody (antibody, V domains shown)
VH: QVQLQQPAAELARPGASVKMSCRASGYTFTTYTMHWVKQRPGQGLEWIGYINPSSGYTDYNQKFRDKITLTADKSSSTAYMQLSSLTSGDSAVYYCAREDYYGQGFTYWGQGTLVTVSR
VL: IVMTQSTSSLSASLGDRVTISCRASQDISNYLNWYQQKPDGTVKLLIYYTSRLHSGVPSRFSGSGSGTDYSLTISNLEQEDIATYFCQQGNMFPWTFGGGTKLELK
notes: variable region of 1E7; mouse IgG2a heavy chain constant domains; mouse light chain constant domain; Full-length mouse IgG2a; source: ExpiCHO-S, transfected, purified (Protein A); copies: 2 + 2
B4: 2B1 monoclonal antibody (antibody, V domains shown)
VH: QVQLQQSGPELVKPGASVKISCKASGYSFTDYNMYWVKQSHGKSLEWIGYFDPYNGGIYYNQNFKGRATLTVDKSSSTAFMHLNSLTSEDSAVYYCARGGGWFRGFTYWGQGTLVTVSR
VL: B3 VL with V2Q, V43L, K44N, M92T, F93L, W95Y, L105I
notes: variable region of 2B1; mouse IgG2a heavy chain constant domains; mouse light chain constant domain; Full-length mouse IgG2a; source: ExpiCHO-S, transfected, purified (Protein A); copies: 2 + 2
B5: 2E9 monoclonal antibody (antibody, V domains shown)
VH: B1 VH
VL: B1 VL
notes: 2E9 HC, whole heavy chain as printed: variable region with mouse IgG2a constant domains; 2E9 LC, whole light chain as printed; full-length mouse IgG2a; measured mass 147,603 Da; also called 2E9 mAb; 2E9 Ab; source: ExpiCHO-S, transfected, purified (HiTrap Protein A); copies: 2 + 2
B6: 1F2 monoclonal antibody (antibody, V domains shown)
VH: B2 VH
VL: B1 VL with V2Q, L3M, T4I, Y70F, S76G, S92T
notes: 1F2 HC, whole heavy chain as printed: variable region with mouse IgG2a constant domains; 1F2 LC, whole light chain as printed; full-length mouse IgG2a; measured mass 148,317 Da; also called 1F2 mAb; 1F2 Ab; source: ExpiCHO-S, transfected, purified (HiTrap Protein A); copies: 2 + 2
B7: 2B1 monoclonal antibody (antibody, V domains shown)
VH: B4 VH
VL: B3 VL with V2Q, V43L, K44N, M92T, F93L, W95Y, L105I
notes: 2B1 HC, whole heavy chain as printed: variable region with mouse IgG2a constant domains; 2B1 LC, whole light chain as printed; full-length mouse IgG2a; measured mass 149,064 Da; also called 2B1 mAb; 2B1 Ab; source: ExpiCHO-S, transfected, purified (HiTrap Protein A); copies: 2 + 2
B8: 1E7 monoclonal antibody (antibody, V domains shown)
VH: B3 VH
VL: B3 VL
notes: 1E7 HC, whole heavy chain as printed: variable region with mouse IgG2a constant domains; a predicted N-linked glycosylation site (NPS) in CDR2 is highlighted; 1E7 LC, whole light chain as printed; full-length mouse IgG2a; measured mass 149,106 Da; also called 1E7 mAb; 1E7 Ab; source: ExpiCHO-S, transfected, purified (HiTrap Protein A); copies: 2 + 2
B9: PeM-19 monoclonal antibody (R2-specific) (antibody, V domains shown)
VH: EVQLQQSGPELVKPGASVKIPCKASGYTFTDYNMDWVKQSHGKSLEWIGDINPNTGETIYNQKFEGKASLTVDKSSNTVYMELRSLTSEDTAVYYCARVPFYFDYWGQGTTLTVSR
VL: DIVMSQSPSSLTVSVGEKVTMSCKSSQSLLYSRDQKNYLAWYQQKPGQSPKMLIHWASTRASGVPDRFTGSGSGTDFTLTISSVKAEDLAVYYCQQYYFYPRTFGGGTKLELK
notes: variable region of PeM-19; mouse IgG2a heavy chain constant domains; mouse light chain constant domain; the methods describe the IgG2a format for the anti-pertactin antibodies in general; also called PeM-19 Ab; source: ExpiCHO-S, transfected, purified (Protein A); copies: 2 + 2

Target: T1, mature pertactin (Prn), wild type
Assay: native MS; titration: fixed 2 µM mAb, Prn 0.5 µM to 8 µM, 250 mM ammonium acetate with 0.06% C10E5
Conditions: both partners purified

| Binder | stoichiometry N |
| --- | --- |
| B1 | 2 Prn per mAb |
| B2 | 2 Prn per mAb |
| B3 | 2 Prn per mAb |
| B4 | 2 Prn per mAb |

Target: T2, Mature Pertactin (Prn)
Assay: BLI; mAb (10 nM) loaded on anti-mouse IgG Fc (AMC) biosensors, dipped into Prn at 50, 25, 12.5, 6.25, 3.125 and 1.56 nM; kinetic buffer (HEPES buffer with 0.01% BSA and 0.002% Tween-20); Octet Red96; 1:1 binding model, global fit, single replicate
Conditions: both partners purified

| Binder | Kd |
| --- | --- |
| B5 | < 1 nM |
| B6 | < 1 nM |
| B7 | < 1 nM |
| B8 | < 1 nM |

Target: T3, ΔC-term Prn variant
Assay: native MS; 2 µM mAb and 2 µM Prn or Prn variant (equimolar), 250 mM ammonium acetate with 0.06% C10E5, 1 hour at room temperature, nano-ESI on Q Exactive UHMR
Conditions: both partners purified

| Binder | binding result |
| --- | --- |
| B9 | no binding (tested: 2 µM each) |
